From doi:10.1101/2022.10.14.512337
Values joined by “and” are separate entries in the source; they are usually repeats but may differ in a detail not shown here. Identical values can stand only once.

Key:
[1] = target: truncated protein consisting of the main body of L. farciminis OxDC (aa 22-373) (L. farciminis); assay: crystal structure
[2] = target: L. farciminis oxalate decarboxylase (OxDC), as used for size-exclusion chromatography (L. farciminis); assay: SEC

truncated protein consisting of the main body of L. farciminis OxDC (aa 22-373) (domain or fragment)
stoichiometry N [1]: 6

L. farciminis oxalate decarboxylase (OxDC), as used for size-exclusion chromatography (enzyme)
stoichiometry N [2]: 2 and 6
